Consider 29 sequences from the supplement of paper PMC9428881.

This data set can be described thus: background-corrected fluorescence of 3'-dye-labeled ssDNA relative to brightest sequence (3'-GCGCG) (fraction); higher = brighter dye fluorescence (less quenching). The method in brief:
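By light-directed phosphoramidite synthesis, single-stranded DNA ending in a 3' Cy3 or Cy5 dye beside each of 1024 permuted pentamers was built on glass slides. Scanning at 532 or 635 nm took place before and after overnight ethylenediamine/ethanol deprotection. Data are means of 10 features per array over at least 3 syntheses. Fluorescence is corrected for unlabeled-oligo background and scaled to the brightest sequence.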

± gives the standard error.

“TTTTTTGCTCATGCTCAGCATTTTTTTTTTTTTTTAGAGT [TGAGA]”: the background-corrected fluorescence is, setting by setting: (dye: Cy3 (3' terminal)) 0.598 ± 0.017; (dye: Cy5 (3' terminal)) 0.503 ± 0.029.

“TTTTTTGCTCATGCTCATCATTTTTTTTTTTTTTTAGAGG [GGAGA]”: the background-corrected fluorescence came out at 0.645 ± 0.037 (dye: Cy3 (3' terminal)) and 0.525 ± 0.055 (dye: Cy5 (3' terminal)).

For the sequence “TTTTTTGCTCATGCTCATGATTTTTTTTTTTTTTTAGAGC [CGAGA]”, the background-corrected fluorescence runs as follows: (dye: Cy3 (3' terminal)) 0.565 ± 0.022; (dye: Cy5 (3' terminal)) 0.435 ± 0.046.

Regarding “TTTTTTGCTCATGCTCATGCTTTTTTTTTTTTTTTAGAGA”, the background-corrected fluorescence (dye: Cy3 (3' terminal)) came out at 0.633 ± 0.031 and the background-corrected fluorescence (dye: Cy5 (3' terminal)) came to 0.519 ± 0.029.

For the sequence “TTTTTTGCTCATGCTGAGCATTTTTTTTTTTTTTTAGACT [TCAGA]”, the background-corrected fluorescence (dye: Cy3 (3' terminal)) worked out at 0.519 ± 0.025 and the background-corrected fluorescence (dye: Cy5 (3' terminal)) is 0.389 ± 0.039.

For the sequence “TTTTTTGCTCATGCTGATCATTTTTTTTTTTTTTTAGACG [GCAGA]”, the background-corrected fluorescence runs as follows: (dye: Cy3 (3' terminal)) 0.563 ± 0.031; (dye: Cy5 (3' terminal)) 0.443 ± 0.033.

With “TTTTTTGCTCATGCTGATGATTTTTTTTTTTTTTTAGACC [CCAGA]”, the background-corrected fluorescence (dye: Cy3 (3' terminal)) turned out to be 0.439 ± 0.034 and the background-corrected fluorescence (dye: Cy5 (3' terminal)) is 0.331 ± 0.02.

Take “TTTTTTGCTCATGCTGATGCTTTTTTTTTTTTTTTAGACA [ACAGA]”: the background-corrected fluorescence reads like this: (dye: Cy3 (3' terminal)) 0.522 ± 0.06; (dye: Cy5 (3' terminal)) 0.383 ± 0.029.

Regarding “TTTTTTGCTCATGCTGCGCATTTTTTTTTTTTTTTAGAAT [TAAGA]”, the background-corrected fluorescence came out at 0.59 ± 0.032 (dye: Cy3 (3' terminal)) and 0.449 ± 0.024 (dye: Cy5 (3' terminal)).

For the sequence “TTTTTTGCTCATGCTGCTCATTTTTTTTTTTTTTTAGAAG [GAAGA]”, the background-corrected fluorescence was 0.5917 ± 0.0049 (dye: Cy3 (3' terminal)) and 0.456 ± 0.025 (dye: Cy5 (3' terminal)).

For “TTTTTTGCTCATGCTGCTGATTTTTTTTTTTTTTTAGAAC [CAAGA]”, the background-corrected fluorescence came out at 0.485 ± 0.022 (dye: Cy3 (3' terminal)) and 0.358 ± 0.022 (dye: Cy5 (3' terminal)).

For the sequence “TTTTTTGCTCATGCTGCTGCTTTTTTTTTTTTTTTAGAAA [AAAGA]”, the background-corrected fluorescence turned out to be 0.64 ± 0.019 (dye: Cy3 (3' terminal)) and 0.484 ± 0.055 (dye: Cy5 (3' terminal)).

In the case of “TTTTTTGCTGAGCAGCAGCATTTTTTTTTTTTTTTACTTT [TTTCA]”, the background-corrected fluorescence reads like this: (dye: Cy3 (3' terminal)) 0.519 ± 0.022; (dye: Cy5 (3' terminal)) 0.37 ± 0.022.

Regarding “TTTTTTGCTGAGCAGCATCATTTTTTTTTTTTTTTACTTG [GTTCA]”, the background-corrected fluorescence is, setting by setting: (dye: Cy3 (3' terminal)) 0.503 ± 0.019; (dye: Cy5 (3' terminal)) 0.4 ± 0.024.

Turning to “TTTTTTGCTGAGCAGCATGATTTTTTTTTTTTTTTACTTC [CTTCA]”, the background-corrected fluorescence turned out to be 0.405 ± 0.022 (dye: Cy3 (3' terminal)) and 0.312 ± 0.027 (dye: Cy5 (3' terminal)).

In turn, “TTTTTTGCTGAGCAGCATGCTTTTTTTTTTTTTTTACTTA [ATTCA]” gave a background-corrected fluorescence (dye: Cy3 (3' terminal)) of 0.493 ± 0.06 and a background-corrected fluorescence (dye: Cy5 (3' terminal)) of 0.379 ± 0.027.

“TTTTTTGCTGAGCATCAGCATTTTTTTTTTTTTTTACTGT [TGTCA]”: the background-corrected fluorescence came out at 0.63 ± 0.027 (dye: Cy3 (3' terminal)) and 0.45 ± 0.06 (dye: Cy5 (3' terminal)).

As for “TTTTTTGCTGAGCATCATCATTTTTTTTTTTTTTTACTGG [GGTCA]”, the background-corrected fluorescence came to 0.623 ± 0.022 (dye: Cy3 (3' terminal)) and 0.481 ± 0.023 (dye: Cy5 (3' terminal)).

For the sequence “TTTTTTGCTGAGCATCATGATTTTTTTTTTTTTTTACTGC [CGTCA]”, the background-corrected fluorescence runs as follows: (dye: Cy3 (3' terminal)) 0.491 ± 0.033; (dye: Cy5 (3' terminal)) 0.365 ± 0.028.

For “TTTTTTGCTGAGCATCATGCTTTTTTTTTTTTTTTACTGA [AGTCA]”, the background-corrected fluorescence turned out to be 0.654 ± 0.04 (dye: Cy3 (3' terminal)) and 0.475 ± 0.024 (dye: Cy5 (3' terminal)).

As to “TTTTTTGCTGAGCATGAGCATTTTTTTTTTTTTTTACTCT [TCTCA]”, the background-corrected fluorescence is, setting by setting: (dye: Cy3 (3' terminal)) 0.421 ± 0.0073; (dye: Cy5 (3' terminal)) 0.331 ± 0.022.

Take “TTTTTTGCTGAGCATGATCATTTTTTTTTTTTTTTACTCG [GCTCA]”: the background-corrected fluorescence stood at 0.571 ± 0.028 (dye: Cy3 (3' terminal)) and 0.418 ± 0.03 (dye: Cy5 (3' terminal)).

“TTTTTTGCTGAGCATGATGATTTTTTTTTTTTTTTACTCC [CCTCA]”: the background-corrected fluorescence reads like this: (dye: Cy3 (3' terminal)) 0.378 ± 0.023; (dye: Cy5 (3' terminal)) 0.3 ± 0.044.

On to “TTTTTTGCTGAGCATGATGCTTTTTTTTTTTTTTTACTCA”, for which the background-corrected fluorescence (dye: Cy3 (3' terminal)) worked out at 0.482 ± 0.028 and the background-corrected fluorescence (dye: Cy5 (3' terminal)) stood at 0.346 ± 0.028.

In the case of “TTTTTTGCTGAGCATGCGCATTTTTTTTTTTTTTTACTAT [TATCA]”, the background-corrected fluorescence by setting is: (dye: Cy3 (3' terminal)) 0.531 ± 0.012; (dye: Cy5 (3' terminal)) 0.392 ± 0.021.

“TTTTTTGCTGAGCATGCTCATTTTTTTTTTTTTTTACTAG [GATCA]”: the background-corrected fluorescence runs as follows: (dye: Cy3 (3' terminal)) 0.554 ± 0.029; (dye: Cy5 (3' terminal)) 0.433 ± 0.025.

On to “TTTTTTGCTGAGCATGCTGATTTTTTTTTTTTTTTACTAC [CATCA]”, for which the background-corrected fluorescence is, setting by setting: (dye: Cy3 (3' terminal)) 0.477 ± 0.017; (dye: Cy5 (3' terminal)) 0.328 ± 0.035.

In the case of “TTTTTTGCTGAGCATGCTGCTTTTTTTTTTTTTTTACTAA [AATCA]”, the background-corrected fluorescence is, setting by setting: (dye: Cy3 (3' terminal)) 0.522 ± 0.0087; (dye: Cy5 (3' terminal)) 0.413 ± 0.021.

Consider “TTTTTTGCTGATCAGCAGCATTTTTTTTTTTTTTTACGTT [TTGCA]”, for which the background-corrected fluorescence reads like this: (dye: Cy3 (3' terminal)) 0.552 ± 0.018; (dye: Cy5 (3' terminal)) 0.433 ± 0.029.
